Measured values as given in patent publication US7597894B2, “Compositions and methods employing alternative reading frame polypeptides for the treatment of cancer and infectious disease” (Dendreon Corporation, priority 2003, dated 2009).

How the values were obtained:
[1] = test system: hHER-2/EL4 (E.HER2) tumor cells; test: Survival after hHER-2/EL4 (E.HER2) tumor challenge of mice pre-immunized with antigen-pulsed dendritic cells; format: in vivo, mouse; conditions: C57BL/6 mice pre-immunized i.p. with antigen-pulsed activated DC, challenged i.p. with hHER-2/EL4 (E.HER2) cells
Protocol: (§1) The hHER-2/E14 tumor cell line was generated by transfecting the mouse EL4 thymoma cell line (ATCC No. TIB-39, Rockville, Md.) with full-length human HER-2 cDNA cloned into the MIRB vector. The hHER-2/B16 tumor cell line was generated by transfecting the mouse B16 melanoma cell line (ATCC No. CRL-6322, Rockville, Md.) with full-length human HER-2 cDNA cloned into the pCR3.1 vector.
(§2) Enriched activated dendritic cells (DCs) were prepared as described (Laus et al., Nature Biotechnology 18:1269-1272 (2000)). Briefly, enriched preparations of activated DC were prepared by incubating female C57BL/6 spleen cells in tissue culture flasks for 2 h at 37° C., removing non-adherent cells, and subsequently culturing the remaining adherent cells for two days in the presence of 1 μM ionomycin (Sigma, St. Louis, Mo.). DC obtained in this manner were pulsed by sixteen hour co-culture with each of the indicated HER-2 ARF polypeptide pools or HER-2 fusion proteins in 1 μM ionomycin, washed two times and injected intraperitoneally (i.p.) into the C57BL/6 mice (2.5×10^5 cells per mouse). Two weeks after the last immunization, mice were challenged with a single i.p. injection of hHER-2/EL4 cells or hHER-2/B 16 cells in 0.1 ml PBS. Mice were monitored daily and their survival recorded.
The effect of pre-immunization with HER-2-ARF polypeptide-pulsed activated DC on suppression of in vivo growth of HER-2-expressing autologous tumors was evaluated in a mouse animal model system. The results of two independent experiments using hHER-2/EL4 cells are shown in FIGS. 1A and 1B, respectively. The results of two independent experiments using hHER-2/B 16 tumor cells are shown in FIGS. 2A and 2B, respectively.

[2] = test system: CD8 T cell hybridoma B6-H9.B7; test: T cell hybridoma assay (stimulation of CD8 T cell hybridoma B6-H9.B7 by Ag-pulsed cells); format: cell-based, mouse; conditions: untransfected EL-4 tumor cells pre-pulsed with the peptide as stimulators
Protocol: CD8 T cell hybridoma B6-H9.B7, specific for the protective Arf peptide 3h, was isolated from mice immunized with HER-2-derived Arf pool B peptides. FIG. 8D. This hybridoma was stimulated by untransfected EL-4 tumor cells pre-pulsed with the peptide 3h as well as an E.HER2 tumor transfectant in the absence of any externally added Arf peptide.
Arf epitope-specific MHC class I-dependent CD8^+ T cell hybridoma B6.H9-B7 was obtained by fusing thymoma cell line BWZ.36CD8 with splenocytes of mice immunized with HER-2-derived Arf pool B3 peptides. Sanderson et al., Int. Immunol. 6:369-376 (1994). The T cell hybridoma assay was performed as described previously. Karttunen et al., Proc. Natl. Acad. Sci. USA. 88:3972-3976 (1991). Briefly, 10^5 hybridoma cells were incubated in 0.2 ml micro-wells with designated washed Ag-pulsed APC. Stimulation of B6.H9-B7 was visualized after incubation with chlorophenol red B-galactoside (expressed in relative light units). FIG. 8E.

[3] = test system: hHER-2/B16 (B16.HER2) tumor cells; test: Survival after hHER-2/B16 tumor challenge of mice pre-immunized with antigen-pulsed dendritic cells; format: in vivo, mouse; conditions: C57BL/6 mice pre-immunized with antigen-pulsed DC, challenged with hHER-2/B16 cells
Protocol: as §1
as §2, with “Two weeks after the last immunization, mice were challenged with a single i.p. injection of hHER-2/EL4 cells or hHER-2/B 16 cells in 0.1 ml PBS.” left out
The effect of pre-immunization with HER-2-ARF polypeptide-pulsed activated DC on suppression of in vivo growth of HER-2-expressing autologous tumors was evaluated in a mouse animal model system. […]

[4] = test system: mPAP/B16 (B16.mPAP) tumor cells; test: Survival after challenge with B16 cells expressing an irrelevant antigen (mouse PAP); format: in vivo; conditions: C57BL/6 mice pre-immunized with antigen-pulsed DC, challenged with B16 cells expressing irrelevant antigen mouse PAP

RHEAAAPCQSRDPPG (Made in a lab from synthetic material) [3h]
protection against tumor challenge / survival (prevention of in vivo tumor growth) [1]: strong protective capabilities
stimulation of CD8 T cell hybridoma B6-H9.B7 [2]: stimulated

VHRHRHEAAAPCQSR (Made in a lab from synthetic material) [3g]
protection against tumor challenge / survival (prevention of in vivo tumor growth) [1]: strong protective capabilities

B1: HER500rGM-CSF: recombinant fusion protein of hHER-2 extracellular and intracellular domain sequences, OVA octapeptide and rat GM-CSF; positive control (protein, listed as Homo sapiens)
chain: MRAAPLLLARAASLSLGFLFLLFFWLDRSVLAKELARGAASTQVCTGTDMKLRLPASPETHLDMLRHLYQGCQVVQGNLELTYLPTNASLSFLQDIQEVQGYVLIAHNQVRQVPLQRLRIVRGTQLFEDNYALAVLDNGDPLNNTTPVTGASPGGLRELQLRSLTEILKGGVLIQRNPQLCYQDTILWKDIFHKNNQLALTLIDTNRSRACHPCSPMCKGSRCWGESSEDCQSLTRTVCAGGCARCKGPLPTDCCHEQCAAGCTGPKHSDCLACLHFNHSGICELHCPALVTYNTDTFESMPNPEGRYTFGASCVTACPYNYLSTDVGSASIINFEKLGAGGMVHHRHRSSSTRSGGGDLTLGLEPSEEEAPRSPLAPSEGAGSDVFDGDLGMGAAKGLQSLPTHDPSPLQRYSEDPTVPLPSETDGYVAPLTCSPQPEYVNQPDVRPQPPSPREGPLPAARPAGATLERAKTLSPGKNGVVKDVFAFGGAVENPEYLTPQGGAAPQPHPPPAFSPAFDNLYYWDQDPPERGAPPSTFKGTPTAENPEYLGLDVPAAAPTRSPNPVTRPWKHVDAIKEALSLLNDMRALENEKNEDVDIISNEFSIQRPTCVQTRLKLYKQGLRGNLTKLNGALTMIASHYQTNCPPTPETDCEIEVTTFEDFIKNLKGFLFDIPFDCWKPVQKGAPPPPAHHHHHH
protection against tumor challenge / survival (prevention of in vivo tumor growth) [1]: prevented tumor growth
protection against tumor challenge / survival [3]: protection
protection against tumor challenge / survival [4]: no protection

B2: HER300: recombinant fusion protein with 289 amino acids of HER-2 membrane distal extracellular domain and OVA257-264; negative control (protein, listed as Homo sapiens)
chain: MRAAPLLLARAASLSLGFLFLLFFWLDRSVLAKELARGAASTQVCTGTDMKLRLPASPETHLDMLRHLYQGCQVVQGNLELTYLPTNASLSFLQDIQEVQGYVLIAHNQVRQVPLQRLRIVRGTQLFEDNYALAVLDNGDPLNNTTPVTGASPGGLRELQLRSLTEILKGGVLIQRNPQLCYQDTILWKDIFHKNNQLALTLIDTNRSRACHPCSPMCKGSRCWGESSEDCQSLTRTVCAGGCARCKGPLPTDCCHEQCAAGCTGPKHSDCLACLHFNHSGICELHCPALVTYNTDTFESMPNPEGRYTFGASCVTACPYNYLSTDVGSASIINFEKLAAPTRSPNPVTRPWKHVDAIKEALSLLNDMRALENEKNEDVDIISNEFSIQRPTCVQTRLKLYKQGLRGNLTKLNGALTMIASHYQTNCPPTPETDCEIEVTTFEDFIKNLKGFLFDIPFDCWKPVQKGAPPPPAHHHHHH
protection against tumor challenge / survival (prevention of in vivo tumor growth) [1]: had little effect
